Target: endogenous CHK2 (human (endogenous in LNCaP)) (UniProt O96017)
Test: co-IP; LNCaP cells expressing wtAR, S81A or S308A for 48 hr; untreated or 6 Gy IR; endogenous CHK2 immunoprecipitated one hour after IR from 1 mg lysate; blotted for AR

Chain of UniProt O96017 (O96017 whole entry): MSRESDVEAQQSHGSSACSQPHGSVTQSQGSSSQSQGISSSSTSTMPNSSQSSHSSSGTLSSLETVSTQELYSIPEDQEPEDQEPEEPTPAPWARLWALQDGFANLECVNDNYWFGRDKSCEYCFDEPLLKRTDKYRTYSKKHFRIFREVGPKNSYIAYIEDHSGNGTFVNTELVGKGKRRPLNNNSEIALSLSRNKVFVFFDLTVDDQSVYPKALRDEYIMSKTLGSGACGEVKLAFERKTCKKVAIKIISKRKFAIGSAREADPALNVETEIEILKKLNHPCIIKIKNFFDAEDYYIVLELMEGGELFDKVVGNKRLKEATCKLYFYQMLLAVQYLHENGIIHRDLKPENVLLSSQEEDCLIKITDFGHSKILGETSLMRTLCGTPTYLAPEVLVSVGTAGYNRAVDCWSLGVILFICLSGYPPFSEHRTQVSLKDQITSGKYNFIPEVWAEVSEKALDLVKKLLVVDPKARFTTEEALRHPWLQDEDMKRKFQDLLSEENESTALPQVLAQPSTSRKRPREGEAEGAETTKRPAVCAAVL

Work on “wtAR expressed in LNCaP cells (from UniProt P10275 1-920) (receptor)” yielded a fold change of AR co-immunoprecipitated with CHK2 after IR against untreated cells of 4 fold.

Source: article PMC7338052
